Data taken from the Human Domainome abundance scans (Beltran et al. 2025).

B1: E3 ubiquitin-protein ligase Midline-1, residues 172 to 214; numbered along this chain, O15344 (parent)
chain: GLMCLEHEDEKVNMYCVTDDQLICALCKLVGRHRDHQVAALSE

Variants of: B1
Test: abundance fitness (aPCA) (normalised: wild type 0, dead -1); higher = more abundant; growth selection in yeast, the domain comes from the species named
Settings: Homo sapiens

Abundance fitness, by site and new letter:
D35: M -0.299 | K -0.105 | L -0.172 | A -0.285 | Y -0.33 | V -0.28 | C -0.142 | S -0.189 | E 0.088 | I -0.496 | P -0.299 | Q 0.034 | H -0.177 | T -0.042 | R -0.287 | N -0.114 | F -0.254
Q21: A 0.003 | Y -0.171 | R 0.031 | W -0.682 | S 0.042 | L -0.154 | F -0.07 | E -0.047 | T -0.064 | V 0.044 | I -0.133 | D -0.099 | C -0.174 | M 0.052 | P -0.524 | H 0.231 | G -0.133
K28: Q 0.288 | H 0.083 | I 0.061 | G 0.013 | P 0 | F -0.316 | M -0.114 | Y -0.161 | R 0.119 | A 0.083 | W -0.149 | S 0.013 | V -0.396 | L -0.16 | E 0.007 | N -0.042 | C -0.148 | T 0.063 | D -0.038
V38: H 0.082 | W -0.018 | S -0.008 | Q -0.125 | K -0.209 | I -0.217 | N -0.243 | M -0.18 | L -0.035 | F 0.124 | T -0.233 | C 0.076 | D -0.131 | R -0.217 | G -0.134
L26: P 0.295 | D 0.089 | T 0.189 | K 0.193 | C 0.138 | S 0.165 | A 0.083 | I -0.525 | H 0.353 | M 0.031 | V 0.027 | R 0.272 | E 0.101 | Q 0.387 | Y -0.041 | N 0.193
L22: T 0.204 | H 0.482 | N 0.698 | R 0.311 | E 0.377 | G 0.364 | K 0.33 | S 0.316 | M 0.004 | Q 0.29 | W 0.024 | P 0.428 | V -0.025
A25: R 0.099 | I -0.266 | W -0.181 | C -0.097 | Q 0.087 | E -0.018 | M -0.23 | V -0.303 | K -0.02 | D -0.073 | T -0.16 | P -0.124 | H 0.188 | F -0.233 | L -0.28 | G 0.105
C27: K -0.429 | Y -0.448 | M -1.02 | S -0.807 | D -0.328 | I -0.538 | P -0.166 | T -0.571 | N -0.478 | V -1 | W -1.01 | G -0.696 | A -0.757 | L -0.883 | H -0.481 | E -0.741 | Q -0.913
D20: Y -0.464 | L -0.404 | Q 0.099 | H -0.106 | V -0.33 | S -0.038 | W -0.753 | R -0.083 | G -0.075 | I -0.543 | N 0.033 | C -0.308 | M -0.067 | T -0.232 | A -0.15 | P -0.573
A40: I -0.789 | H -0.141 | D 0.031 | G 0.046 | M -0.151 | K 0.108 | F 0.099 | L -0.158
I23: L -0.019 | W -0.423 | T -0.1 | F -0.38 | K -0.312 | S -0.369 | D -0.124 | R -0.237 | C -0.081 | M 0.011 | A 0.022 | G -0.19 | E -0.233 | V 0.151
Q37: T -0.026 | V -0.208 | M -0.269 | A -0.006 | R -0.077 | S 0.047 | N -0.184 | P -0.015 | D 0.105 | L -0.338 | Y -0.169 | G -0.146 | I -0.508 | E 0.023 | W -0.6 | F -0.347 | H -0.148
V30: R -0.055 | G 0.134 | I -0.131 | N 0.147 | D 0.145 | S 0.114 | L -0.028 | A 0.15 | H 0.21 | E 0.138 | W -0.309 | Y -0.049 | F -0.381 | K 0.235 | P 0.022 | C -0.115 | M -0.039
H33: F -0.528 | N -0.42 | V -0.882 | D -0.647 | L -0.829 | E -0.576 | G -0.478 | T -0.538 | Q -0.73 | A -0.591 | S -0.718 | W -1.01 | K -0.423 | Y -0.603 | R -0.732
R34: L -0.376 | Q 0.088 | H 0.25 | V -0.069 | S -0.066 | E 0.063 | W -0.542 | P -0.24 | Y -0.544 | K 0.376 | A 0.164 | I 0 | C 0.033 | D -0.169 | G 0.048
D19: W -0.779 | V -1.02 | T -0.984
R32: L -0.058 | K 0.116 | T 0.09 | W -0.323 | M -0.219 | G 0.061 | F -0.593 | E 0.149 | H -0.152 | C -0.021 | V -0.172 | I -0.18 | Q 0.007 | P -0.022 | A 0.033 | D -0.072 | N 0.287 | S 0.073
A39: T 0.181 | P -0.491 | V 0.027 | I -0.08 | N 0.401 | M -0.089 | C 0.003 | D 0.088 | E 0.016 | K 0.059 | Q 0.04 | H -0.024 | S 0.102 | Y -0.393 | W -0.424
L29: S 0.279 | K 0.182 | H 0.19 | A 0.135 | D 0.241 | C 0.025 | M 0.086 | Y -0.085 | V 0.008 | I -0.205 | G 0.213 | F -0.262 | T 0.175 | R 0.227 | N 0.072 | Q -0.016 | E 0.211
H36: S -0.533 | C -0.056 | K 0.034 | T -0.689 | P -0.637 | D -0.798 | L -0.753 | V -0.588 | Y -0.381 | W -1.01 | G -0.516 | R -0.669 | Q -0.284 | E -0.546 | A -0.445 | N -0.376 | I -0.488 | M -1.04
G31: L -0.47 | E -0.154 | Q -0.438 | T -0.333 | I -0.887 | S -0.263 | Y -0.19 | D 0.111 | F -0.519 | R -0.299 | C -0.121 | M -0.514 | W -0.803 | K -0.065 | H 0.057 | A -0.231
C24: T -0.706 | L -0.868 | M -1.02 | G -0.814 | P -0.977 | W -0.978 | V -0.971 | S -1.01 | R -1.02 | N -0.656 | A -0.799 | Y -0.364 | E -1.05 | K -0.885 | Q -0.792
